Data set [1] deals with HCT116 human colon cancer cells. Briefly: In vitro cytotoxicity (MTS), HCT116. Conditions: HCT-116, 72 h, HCT-116 cells, GEM equivalent. Format: cell-based. The protocol:
(§1) HCT116 and Colo205 human colon cancer cells were procured from Duke Cell Culture Facility and were cultured in complete media containing Minimum Essential Medium Eagle (MEME) supplemented with 10% Fetal Bovine Serum (FBS). Cells were maintained at 37° C. and 5% CO2 and passaged every 2-3 days. […] 20 μL of CellTiter 96 AQueous™ (Promega; Madison, Wis.) 3-(4,5,-[…])-5-(3-carboxymethoxyphenyl)-2-(4-sulfophenyl)-2H-tetrazolium (MTS) solution was added to each well and incubated at 37° C. After 2 h of incubation, the absorbance of the solution was measured at 490 nm with a Victor3 microplate reader (Perkin Elmer; Waltham, Mass.).

Data set [2] relates to Colo205 human colon cancer cells. Briefly: In vitro cytotoxicity (MTS), Colo205. To be noted: COLO 205, 72 h, Colo 205 cells, GEM equivalent. Format: cell-based. The protocol:
as §1

For data set [3] the following is noted: reported value in nude mice; cited from earlier work.
Data set [4] concerns subcutaneous HCT116 tumors. Put plainly: Tumor regression, subcutaneous HCT116 xenograft. To be noted: 25 mg·kg^−1 GEM equivalent i.v. on day 0, 2 and 4, n=6. Type of data set: in vivo, mice.
Description: The PBS control or drugs were administered by tail vein infusion (50 μL/min) of 500 μL. Tumor dimensions and BW were determined 3-4 times a week, and the tumor volume was calculated using the equation: volume [mm^3]=length×width×width×1/2.
BW of mice were monitored and the mice were euthanized upon exceeding 15% loss in BW or if their tumors volume was greater than 1000 mm^3. […] The maximum tolerated dose (MTD) was determined in mice with tumors. Kaplan-Meier analysis was used to compare the cumulative survival and the Sidak test, Tukey Test, Wilcoxon test were carried out using GraphPad Prism 6 software.
Data set [5] can be described thus: Temperature-programmed turbidimetry (transition temperature Tt). Type of data set: physicochemical. To be noted: for Tt, Concentration 25 μM / Tt, Concentration 50 μM / Tt, Concentration 100 μM: ATBP or ATBP-SMM conjugate in PBS; for Tt, Concentration 25 μM: ATBP concentration 25 μM; for Tt, Concentration 50 μM: ATBP concentration 50 μM; for Tt, Concentration 100 μM: ATBP concentration 100 μM. The procedure:
Temperature-Programmed Turbidimetry:
To determine the Tt ATBP-SMM conjugate or parent ATBP were resuspended in PBS at ATBP concentrations of […] and the optical density of each sample was measured at 350 nm by ramping the temperature at a rate of 1° C./min on a temperature-controlled UV-vis spectrophotometer (Cary 300 Bio; Varian Instruments, Palo Alto, Calif.). The Tt was determined from the inflection point of the turbidity profile. […]

Data set [6] can be described thus: Pyrene fluorescence assay (critical aggregation concentration). Type of data set: physicochemical. The protocol:
The CAC of ATBP and ATBP-SMM conjugates were determined by fluorescence spectroscopy using pyrene which was utilized as a probe of the local hydrophobicity. The ratio of the first fluorescence emission peak (I370-373) and the third peak (I381-394) were measured at different ATBP concentrations. The inflection point of the curves was used to determine the CAC.
ATBP-GEM was characterized by DLS, SLS, cryo-TEM, AFM, temperature programmed turbidimetry and pyrene fluorescence assay. The detailed procedure was identical to that used to characterize ATBP-SMM conjugates.

Data set [7] can be described thus: SMM conjugation ratio by Ellman's reagent assay. Type of data set: physicochemical. Background: Ellman's reagent forms a yellow product with free thiols.
Description: Determination of SMM Conjugation Ratio:
Following purification, 2-3 mg of lyophilized ATBP was dissolved in 1 mL ddH20. In order to break any pre-existing disulfide bonds between unconjugated cysteine residues, 100 μL of the conjugate was incubated with 100 μL of Immobilized TCEP Reducing Gel (Thermo Fisher Scientific; Rockford, Ill.) for 1 hr at 25° C. Included spin columns were utilized to separate the TCEP beads from the ATBP conjugates. The solution was then split for use in two parallel assays. To determine the ATBP concentration, a 96-well bicinchoninic acid assay (Thermo Fisher Scientific) was used on a Victor3™ microplate reader (Perkin Elmer; Waltham, Mass.). 10 μL of ATBP solution was mixed with 200 μL of BCA working reagent, incubated for 30 min at 37° C., and was compared to an ATBP standard curve (100, 50, 25, 10, 5, 0 μM) fit to a 2nd order polynomial in order to estimate the ATBP concentration for the absorbance at 560 nm. Each conjugate was measured in triplicate. To determine the concentration of free thiols, a 96-well Ellman's assay was developed for use on the Victor3™ microplate reader at an absorbance of 405 nm. 40 μL of an ATBP solution was mixed with 200 μL of a working reagent (25 μM Ellman's reagent in 100 mM phosphate buffer, 1 mM EDTA, pH 8.0), incubated for 2 h at 25° C., and was compared to a standard curve of the ATBP prior to conjugation (100, 50, 25, 10, 5, 0 μM). […] The conjugation ratio was the difference between the number of cysteines (8/ATBP) and the calculated number of free cysteines.
Data set [8] is described as follows: Dynamic light scattering (hydrodynamic radius). Type of data set: physicochemical. To be noted: ATBP or ATBP-SMM conjugate nanoparticles, DLS in PBS at 22° C. The procedure: (§2) Static and Dynamic Light Scattering:
(§3) Static and dynamic light scattering measurements were performed on an ALV/CGS-3 goniometer system (Langen, Germany) to determine the Rh and Rg of the ATBP and ATBP-SMM nanoparticle. For the ALV/CGS-3 goniometer system, ATBP and ATBP-SMM conjugates were resuspended in PBS and filtered through 0.22 μm Millex-GV filters into a 10 mm diameter disposable borosilicate glass tube (Fisher). SLS and DLS were measured simultaneously at 22° C. for angles between 30°-150° at 5° increments, where the measurements at each angle was of 3 runs for 15 seconds. The differential refractive index (dn/dc) was quantified by determining the refractive index at five different dilutions using an Abbemat 500 refractometer (Anton Paar, Graz, Austria). DLS data were analyzed by fitting the autocorrelation function to a biexponential decay using the HDRC software package (Germany). The Rh was plotted against angle and extrapolated to zero scattering angle in order to eliminate the effect of the form factor and observe the true hydrodynamic radius. Partial Zimm plots were used to analyze the SLS measurements and ALV/Dynamic and Static FIT and PLOT software was used to determine the Rg and MW of the nanoparticles. The Nagg was calculated by dividing the MW of the nanoparticles by the MW of the ATBP or ATBP-SMM conjugate.
(§4) The detailed procedure was identical to that used to characterize ATBP-SMM conjugates.

The nature of data set [9]: Static light scattering (Rg, Nagg, shape factor). Format: physicochemical. To be noted: for ρ (Rg/Rh) shape factor: computed from DLS and SLS data; for Nagg (chains per nanoparticle) / Rg: nanoparticles; for Nagg (chains per nanoparticle): SLS; for Rg: SLS partial Zimm plot. The procedure: as §2, §3, §4
The mark [10] stands for this setting: Table 1, ATBP or ATBP-SMM conjugate, pyrene assay.

Values joined by “and” are separate entries in the source; they are usually repeats but may differ in a detail not shown here. Equal entries are not always repeated. Structures can show the parent of a compound that is named as a salt.

As usually defined, the IC50 is the concentration at which inhibition is half-maximal. As for `Nc1ccn([C@@H]2O[C@H](CO)[C@@H](O)C2(F)F)c(=O)n1` [GEM, Gemcitabine], the IC50 is around 0.0041 µM in data set [1] and around 0.0464 µM in data set [2]. In addition, the terminal half-life in data set [3] is 3.4 h. In addition, the median survival time in data set [4] turned out to be 21 days. In data set [4] (12 days after treatment), the mean tumor volume is listed as 343 mm^3.

Turning to `O=C1C=CC(=O)N1O` [SMM 1, N-hydroxymaleimide], in [5], the “Tt, Concentration 25 μM” value came to 49 C; the “Tt, Concentration 50 μM” value was 46 C; the “Tt, Concentration 100 μM” value amounted to 41 C. The same molecule gave a CAC in [6] (setting [10]) of 8.2 µM. In addition, the “#SMM/ATBP (number of SMM conjugated per ATBP)” value in data set [7] was determined as 7.4. This molecule also gave a Rh in [8] of 87.3 nm. Further, in data set [9], the “ρ (Rg/Rh) shape factor” value came out at 0.81, the “Nagg (chains per nanoparticle)” value is listed as 41 and the Rg stood at 77.0 nm.

As for `Cl.NCCN1C(=O)C=CC1=O` [SMM 2, N-1-(2-Amino-ethyl)-pyrrole-2,5-dione hydrochloride], in data set [5], the “Tt, Concentration 25 μM” value is listed as 49 C; the “Tt, Concentration 50 μM” value is listed as 46 C; the “Tt, Concentration 100 μM” value was 41 C. Moreover, the CAC in data set [6] (setting [10]) was 6.6 µM. In addition, in [7], the “#SMM/ATBP (number of SMM conjugated per ATBP)” value is 6.9. The Rh in data set [8] came to 123.5 nm. Moreover, in data set [9], the “ρ (Rg/Rh) shape factor” value was 1.14, the “Nagg (chains per nanoparticle)” value is 50 and the Rg was found to be 141.0 nm.

As to `CS(=O)(=O)OCCN1C(=O)C=CC1=O` [SMM 3, N-2-Maleimidoethyl mesylate], in data set [5], the “Tt, Concentration 25 μM” value is on record as 45 C; the “Tt, Concentration 50 μM” value is given as 42 C; the “Tt, Concentration 100 μM” value is 38 C. The same molecule had a CAC in [6] (setting [10]) of 3.2 µM. In data set [7], the “#SMM/ATBP (number of SMM conjugated per ATBP)” value is given as 6.9. This molecule also showed a Rh in data set [8] of 109.1 nm. In addition, in [9], the “ρ (Rg/Rh) shape factor” value is 1.06, the “Nagg (chains per nanoparticle)” value is given as 219 and the Rg came out at 115.6 nm.

On to `CN1C(=O)C=CC1=O` [SMM 5, N-methyl maleimide], for which, in data set [5], the “Tt, Concentration 25 μM” value was found to be 45 C; the “Tt, Concentration 50 μM” value turned out to be 44 C; the “Tt, Concentration 100 μM” value amounted to 42 C. This molecule gave a CAC in data set [6] (setting [10]) of 4.9 µM. The “#SMM/ATBP (number of SMM conjugated per ATBP)” value in [7] is recorded as 6.8. Also, the Rh in [8] turned out to be 46.8 nm. For the same molecule, in data set [9], the “ρ (Rg/Rh) shape factor” value worked out at 0.978, the “Nagg (chains per nanoparticle)” value came out at 62 and the Rg stood at 45.7 nm.

With `CCN1C(=O)C=CC1=O` [SMM 6, N-ethyl maleimide], in data set [5], the “Tt, Concentration 25 μM” value is given as 47 C; the “Tt, Concentration 50 μM” value was 46 C; the “Tt, Concentration 100 μM” value is reported as 40 C. This molecule also registered a CAC in data set [6] (setting [10]) of 3.8 µM. Also, the “#SMM/ATBP (number of SMM conjugated per ATBP)” value in data set [7] is on record as 7.1. In data set [8], the Rh is reported as 62.3 nm. Further, in data set [9], the “ρ (Rg/Rh) shape factor” value was 1.004, the “Nagg (chains per nanoparticle)” value is 115 and the Rg came out at 62.5 nm.

On to `O=C1C=CC(=O)N1c1ccccc1` [SMM 7, N-Phenyl maleimide], for which, in data set [5], the “Tt, Concentration 25 μM” value came to 48 C; the “Tt, Concentration 50 μM” value worked out at 44 C; the “Tt, Concentration 100 μM” value came out at 41 C. For the same molecule, the CAC in data set [6] (setting [10]) was 1.6 µM. Moreover, the “#SMM/ATBP (number of SMM conjugated per ATBP)” value in data set [7] is on record as 7.0. In data set [8], the Rh is reported as 49.1 nm. In [9], the “ρ (Rg/Rh) shape factor” value amounted to 0.905, the “Nagg (chains per nanoparticle)” value came out at 112 and the Rg was determined as 44.4 nm.

Take `CC(C)(C)N1C(=O)C=CC1=O` [SMM 8, N-^tbutyl maleimide]: in data set [5], the “Tt, Concentration 25 μM” value amounted to 44 C; the “Tt, Concentration 50 μM” value is 47 C; the “Tt, Concentration 100 μM” value came out at 41 C. Further, the CAC in [6] (setting [10]) amounted to 1.5 µM. Further, in data set [7], the “#SMM/ATBP (number of SMM conjugated per ATBP)” value worked out at 6.4. Also, the Rh in data set [8] turned out to be 46.2 nm. Also, in [9], the “ρ (Rg/Rh) shape factor” value is recorded as 0.963, the “Nagg (chains per nanoparticle)” value worked out at 93 and the Rg was 44.5 nm.

B1: SKGPG-(AGVPG)160-(YG)6-(CGG)8-WP (protein)
chain: SKGPGAGVPGAGVPGAGVPGAGVPGAGVPGAGVPGAGVPGAGVPGAGVPGAGVPGAGVPGAGVPGAGVPGAGVPGAGVPGAGVPGAGVPGAGVPGAGVPGAGVPGAGVPGAGVPGAGVPGAGVPGAGVPGAGVPGAGVPGAGVPGAGVPGAGVPGAGVPGAGVPGAGVPGAGVPGAGVPGAGVPGAGVPGAGVPGAGVPGAGVPGAGVPGAGVPGAGVPGAGVPGAGVPGAGVPGAGVPGAGVPGAGVPGAGVPGAGVPGAGVPGAGVPGAGVPGAGVPGAGVPGAGVPGAGVPGAGVPGAGVPGAGVPGAGVPGAGVPGAGVPGAGVPGAGVPGAGVPGAGVPGAGVPGAGVPGAGVPGAGVPGAGVPGAGVPGAGVPGAGVPGAGVPGAGVPGAGVPGAGVPGAGVPGAGVPGAGVPGAGVPGAGVPGAGVPGAGVPGAGVPGAGVPGAGVPGAGVPGAGVPGAGVPGAGVPGAGVPGAGVPGAGVPGAGVPGAGVPGAGVPGAGVPGAGVPGAGVPGAGVPGAGVPGAGVPGAGVPGAGVPGAGVPGAGVPGAGVPGAGVPGAGVPGAGVPGAGVPGAGVPGAGVPGAGVPGAGVPGAGVPGAGVPGAGVPGAGVPGAGVPGAGVPGAGVPGAGVPGAGVPGAGVPGAGVPGAGVPGAGVPGAGVPGAGVPGAGVPGAGVPGAGVPGAGVPGAGVPGAGVPGAGVPGAGVPGAGVPGAGVPGAGVPGAGVPGAGVPGAGVPGAGVPGAGVPGAGVPGAGVPGAGVPGAGVPGAGVPGAGVPGAGVPGAGVPGAGVPGAGVPGYGYGYGYGYGYGCGGCGGCGGCGGCGGCGGCGGCGGWP
Consider B1, for which, in data set [5], the “Tt, Concentration 25 μM” value is 47 C; the “Tt, Concentration 50 μM” value was determined as 44 C; the “Tt, Concentration 100 μM” value was 40 C. Also, the Tt in data set [5] (FIG. 3(G), thermal turbidimetry at 350 nm) was 47 °C. This molecule also gave a CAC in [6] (setting [10]) of 3.6 µM. The CAC result in data set [6] (pyrene fluorescence assay) is on record as “about 3.6 μM”. In data set [8], the Rh was 50 nm and 50.1 nm. In addition, in data set [9], the “ρ (Rg/Rh) shape factor” value is 0.85, the “Nagg (chains per nanoparticle)” value is recorded as 62 and the Rg turned out to be 42.6 nm.

The values above are taken from US11135301B2, “Triblock polypeptide-based nanoparticles for the delivery of hydrophilic drugs” (Duke University, priority 2016, dated 2021).
